± gives the uncertainty stated by the source.
B1: Endonuclease CUE2, residues 9 to 47; numbered along this chain, P36075 (parent)
chain: HESKLSILMDMFPAISKSKLQVHLLENNNDLDLTIGLLL

Variants of: B1
Assay: abundance fitness (aPCA) (normalised: wild type 0, dead -1); higher = more abundant; growth selection in yeast, the domain comes from the species named
Conditions: Saccharomyces cerevisiae (strain ATCC 204508 / S288c)

Variant | abundance fitness
HESKLSILMDMFPAISKSKLQVHLLENNNDLDLWIGLLL [T34W] | -1.19 ± 0.18
HESKLSILMDMFPAISKSKLQVHLLENNNDLDLLIGLLL [T34L] | -0.729 ± 0.059
HESKLSILMDMFPAISKSKLQDHLLENNNDLDLTIGLLL [V22D] | -0.069 ± 0.11
HESKLSILMDMFPAISKSKLQGHLLENNNDLDLTIGLLL [V22G] | -0.071 ± 0.036
HESKLSILMDMFPAISKSKLQVHLLENNNDLDLTSGLLL [I35S] | -0.153 ± 0.045
HESKLSILMDMFPAISKSKLQVHLLENNNDLDLTTGLLL [I35T] | -0.053 ± 0.051
HESKLSILMDMFPAISKSKCQVHLLENNNDLDLTIGLLL [L20C] | -0.058 ± 0.12
HESKLSCLMDMFPAISKSKLQVHLLENNNDLDLTIGLLL [I7C] | 0.153 ± 0.26
HESKLSQLMDMFPAISKSKLQVHLLENNNDLDLTIGLLL [I7Q] | 0.137 ± 0.072
HESKLSVLMDMFPAISKSKLQVHLLENNNDLDLTIGLLL [I7V] | 0.095 ± 0.036
HESKLSILMDMFPAISKKKLQVHLLENNNDLDLTIGLLL [S18K] | -0.03 ± 0.077
HESKLSILMDMFPAISKRKLQVHLLENNNDLDLTIGLLL [S18R] | -0.038 ± 0.033
HESKLSILMDMFFAISKSKLQVHLLENNNDLDLTIGLLL [P13F] | -0.868 ± 0.37
HESKLSILMDMFPAESKSKLQVHLLENNNDLDLTIGLLL [I15E] | -0.017 ± 0.042
HESKLSILMDMFPAIWKSKLQVHLLENNNDLDLTIGLLL [S16W] | -0.654 ± 0.11
HESKLSILMDMFPAICKSKLQVHLLENNNDLDLTIGLLL [S16C] | -0.133 ± 0.14
HESKLSILMDMFPAISKSKLQVHLLENNNDLDLTIGLDL [L38D] | -0.1 ± 0.25
HESKLSILMDMFPAISKSKLQVHLLENNNDLDLTIGLRL [L38R] | -0.792 ± 0.06
HESKLSILMDMFPAISKSKLQVHLLENHNDLDLTIGLLL [N28H] | -0.148 ± 0.18
HESKLSILMDMFPAISKSKLQVHLLENCNDLDLTIGLLL [N28C] | -0.329 ± 0.15
HESKLSILMDMFPAISKSKLQVHLLENPNDLDLTIGLLL [N28P] | -0.68 ± 0.11
HESKLSILMDMFPAISQSKLQVHLLENNNDLDLTIGLLL [K17Q] | 0.013 ± 0.1

Variant | abundance fitness
HESKLSILMDMFPAISRSKLQVHLLENNNDLDLTIGLLL [K17R] | -0.074 ± 0.037
HESKLSILMDMFPAISESKLQVHLLENNNDLDLTIGLLL [K17E] | -0.122 ± 0.04
HESKLSILMDMFPAISKSKLQVHLLENNNDLDLTIGLLR [L39R] | 0.276 ± 0.035
HESKLSILMDMFPAISKSKLQVHLLENNNDLDLTIGLLM [L39M] | 0.167 ± 0.057
HESKLSILMDMFPAISKSKLQVHLLENNNDLDLTIGLLP [L39P] | -0.199 ± 0.048
HESKLSILMDMFPAISKSKLQVHQLENNNDLDLTIGLLL [L24Q] | -1.08 ± 0.42
HESKLSILMDMFPAISKSKLQVHLLENNKDLDLTIGLLL [N29K] | -0.364 ± 0.076
HESHLSILMDMFPAISKSKLQVHLLENNNDLDLTIGLLL [K4H] | 0.098 ± 0.19
HESKLSILMDMDPAISKSKLQVHLLENNNDLDLTIGLLL [F12D] | -1.07 ± 0.28
HESKLSILMDMSPAISKSKLQVHLLENNNDLDLTIGLLL [F12S] | -0.808 ± 0.12
HESKLSILMDMWPAISKSKLQVHLLENNNDLDLTIGLLL [F12W] | -0.596 ± 0.097
HEVKLSILMDMFPAISKSKLQVHLLENNNDLDLTIGLLL [S3V] | -0.329 ± 0.047
HEEKLSILMDMFPAISKSKLQVHLLENNNDLDLTIGLLL [S3E] | -0.106 ± 0.043
HEGKLSILMDMFPAISKSKLQVHLLENNNDLDLTIGLLL [S3G] | -0.145 ± 0.036
HESKLSILMDMFPAISKSKLQVHLLEMNNDLDLTIGLLL [N27M] | -0.191 ± 0.077
HESKLSILMDMFPAISKSKLQVHLLEVNNDLDLTIGLLL [N27V] | -0.415 ± 0.062
HESKLSILMDMFPAISKSKLQVHLLEINNDLDLTIGLLL [N27I] | -0.461 ± 0.41
HESKLSIVMDMFPAISKSKLQVHLLENNNDLDLTIGLLL [L8V] | -0.596 ± 0.046
HESKLSILMDMFPAISKSELQVHLLENNNDLDLTIGLLL [K19E] | -0.053 ± 0.042
HESKLSILMDMFPAISKSCLQVHLLENNNDLDLTIGLLL [K19C] | -0.248 ± 0.096
HESKLSILMDMFPAISKSQLQVHLLENNNDLDLTIGLLL [K19Q] | -0.048 ± 0.044
HESKLSILMDMFPAISKSALQVHLLENNNDLDLTIGLLL [K19A] | -0.051 ± 0.035

Variant | abundance fitness
HESKLSILMDMFPAISKSDLQVHLLENNNDLDLTIGLLL [K19D] | -0.081 ± 0.067
GESKLSILMDMFPAISKSKLQVHLLENNNDLDLTIGLLL [H1G] | 0.237 ± 0.037
HESKLSILADMFPAISKSKLQVHLLENNNDLDLTIGLLL [M9A] | -0.042 ± 0.042
HESKLSILPDMFPAISKSKLQVHLLENNNDLDLTIGLLL [M9P] | -1.14 ± 0.28
HESKLSILMDPFPAISKSKLQVHLLENNNDLDLTIGLLL [M11P] | -0.748 ± 0.28
HESKLSILMDMFPTISKSKLQVHLLENNNDLDLTIGLLL [A14T] | -0.163 ± 0.22
HESKLSILMDMFPVISKSKLQVHLLENNNDLDLTIGLLL [A14V] | -0.079 ± 0.047
HESKLSILMDMFPAISKSKLRVHLLENNNDLDLTIGLLL [Q21R] | -0.085 ± 0.034
HESKLSILMDMFPAISKSKLSVHLLENNNDLDLTIGLLL [Q21S] | 0.033 ± 0.049
HESKLSILMDMFPAISKSKLQVHLLENNNDEDLTIGLLL [L31E] | -0.633 ± 0.11
HESKLSILMDMFPAISKSKLQVHLLENNNDMDLTIGLLL [L31M] | -0.211 ± 0.099
HESKLSILMDMFPAISKSKLQVHLLENNNDVDLTIGLLL [L31V] | 0.136 ± 0.033
HESKLSILMDMFPAISKSKLQVHLLENNNDLDLTIALLL [G36A] | 0.025 ± 0.036
HESKLSILMDMFPAISKSKLQVHLLENNNDLDLTICLLL [G36C] | -0.042 ± 0.055
HESKLSILMDMFPAISKSKLQVHLLENNNDLHLTIGLLL [D32H] | -0.106 ± 0.056
HESKVSILMDMFPAISKSKLQVHLLENNNDLDLTIGLLL [L5V] | -0.002 ± 0.037
HESKKSILMDMFPAISKSKLQVHLLENNNDLDLTIGLLL [L5K] | -0.771 ± 0.27
HESKLSILMDMFPAISKSKLQVHLLGNNNDLDLTIGLLL [E26G] | -0.123 ± 0.035
HESKLSILMDMFPAISKSKLQVYLLENNNDLDLTIGLLL [H23Y] | -0.154 ± 0.23
HESKLSILMSMFPAISKSKLQVHLLENNNDLDLTIGLLL [D10S] | -0.299 ± 0.056
